Data taken from publication doi:10.1101/2025.03.30.646023 (bioRxiv, 2025).

B1: PRO-37587 (antibody, V domains shown)
VH: QVQLVQSGAEVKKPGSSVKVSCKASGDTSDTYTISWVRQAPGQGLEWMGRIILLSGYANYAQKIQGRVTITADKSTSTAYMELTSLRSDDTAVYYCARGFNGDYYGWGDDDAFDFWGQGTLVTVYS
VL: QTVLTQPPSVSGAPGQRVTISCTGSSSNIGAGYRVHWYQQLPGTAPKLLIAGRSNRPSGVPDRFSGSKSGTSASLAITGLQAEDEADYYCQSYDSSLFDPHWVFGGGTKLTVL
B2: GB-0669 Fab (Fab, V domains shown)
VH: EVQLVESGAEVKKPGESLKISCKGSGYTFTRYWIGWVRQMPGKGLEWMGIIYPGDSDVRYSPSFQGHVTISADKSISTAYLQWNSLKASDTAMYYCARLPQYCSKGVCYRWFDPWGQGTLVTVSS
VL: EIVLTQSPSSVSASVGDRVTITCRASQGISSWLAWYQQKPGKAPKLLIYAASSLQSGVPSRFSGSGSGTDFTLTISSLQPEDFATYYCQQGHSFPYTFGQGTNLEIK
B3: CV3-25 Fab (Fab, V domains shown)
VH: EVQLVESGAEVKKPGESLKISCKGSGYTFTRYWIGWVRQMPGKGLEWMGIIYPGDSDTRYSPSFQGHVTISADKSISTAYLQWNSLKASDTAMYYCARLPQYCSNGVCQRWFDPWGQGTLVTVSS
VL: EIVLTQSPSSVSASVGDRVTITCRASQGISSWLAWYQQKPGKAPKLLIYAASSLQSGVPSRFSGSGSGTDFTLTISSLQPEDFATYYCQQGNSFPYTFGQGTNLEIK

Tests used:
LC556375.1 RBD = LC556375.1 RBD (Sarbecovirus Rc-o319 (Rhinolophus …, strain)); assay: flow cytometry on cells
[1] = target: T1, SARS-CoV-2 spike S2 [aa 1149-1167] peptide (SARS-CoV-2, UniProt P0DTC2); assay: crystal structure
T1 chain: KEELDKYFKNHTSPDVDLG

[2] = target: T2, SARS-CoV-2 spike S2 stem helix peptide (amino acid 1143 - 1162) (SARS-CoV-2, UniProt P0DTC2, biotin, amino-terminus); assay: SPR
T2 chain: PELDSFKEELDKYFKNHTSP

Binder | binding result (LC556375.1 RBD) | binding result [1] | binding result [2]
B1 | no binding (tested: 1 nM) | – | –
B2 | – | binds | binds
B3 | – | – | binds
